Data taken from the DeepSol protein solubility set.

Assay: soluble on expression in E. coli; label from the status in PepcDB or PDB records

Row | Sequence | soluble on expression in E. coli
1 | MGSDKIHHHHHHMMKHRHPQLRFLGATDSVTGSRYLVEAAGKRILVDCGLFQGYKVLRDRNRIPFPVRPDSIDAILLTHAHLDHTGYVPALVRDGFNGPVYATEGTTELCTLLLPDSGHLQEEEAKYAYEHGSSRHSPPVPLYTAADAVRSLDSFREHGFDTPLELGGGIAATFLPAGHILGAAQIRLAVGQHSVHFTGDLGRTDDPLMFPPRGLGAADILVTESTYGNRKHSSLDPELQLGEIITRVAKKNGVIMIAAFAVGRAETLMLHLSRLRSKNAIPDIPVYLNSPMAIDASGMYQRHPDEHRLKQPEYEDMYKVAKMTRTVDDSKLLNLRGGPMVIISASGMLTGGRILHHIAEYGPDPKNAIILSGYQAGGTRGAALAAGVRQLRIYGEDVRIRAEVIQMESLSAHADSDGLIEWMRAAAREPRMTYITHGEPEASDALRIRIKRELGWRVRVPEYLEGISLEDPT | not soluble
2 | MGSSHHHHHHSSGLVPRGSHMDRKTEFIECTNAFNEKPKKGIPMLIEKGFIASDSDKDIAEFLFNNNNRMNKKTIGLLLCHPDKVSLLNEYIRLFDFSGLRVDEAIRILLTKFRLPGESQQIERIIEAFSSAYCENQDYDPSKISDNAEDDISTVQPDADSVFILSYSIIMLNTDLHNPQVKEHMSFEDYSGNLKGCCNHKDFPFWYLDRVYCSIRDKEIVMPEEHHGNE | soluble
3 | SLIRSMTGFGSASKTQDDLSVSVELKSVNYRFKEVNARLPRPLLYFEDKLKQTILQHIQRGRIELFVSVDSDMLVEKRLEIDWPLLDEFVAAARDMKKRYQLSAEPDVMDFFKLDHVVQVHEEQTQNDKLEALIIDAAEEAVKGLCEMREKEGLLLAKDCLMHIDQLEELVRETELLAADVVSRYRERLYARIKEWTEDVLDESRLVTECAIFADRSDITEEITRLKSHFAQFRDILASGGAVGRKLDFLVQELNREANTIGSKANDHQITKLVVEMKSSIEKIKEQVQNIE | soluble
4 | MSLKFAFIAKHRSIWPVAWLCEALGVSRSGFHAWFNRSPSEHARHDEVLLERIKQSFQSSDRTYGARRVWHDVLEEGLSCGLHRIERLMRLNALRARPRRRGFPKDAGDRPVVMPNVLDRQFVADRPNQKWVADFTYIWTAEGWLYVAAVIDLFSRRVVGWSMNANMTAQLVTDALIMAIWRRGKPDALLHHSDQGSQYTSEQFQRLMGDHGITCSMSRSGNVWDNAAMESFFSSLKTERTARKVYRTRNDARADVFDYIERFYNPKRRHSTLGYLSPDDFETKVGLAEGHHHHHH | not soluble
5 | MAHHHHHHMSAARDDSAPCAVPSTLWRECLKQYDYGPDRPKGACEAHRTKFYDCVKDWTARTQHKSYSYTQFELPKSCGHEAEKLHQCMMMNMFEVGHCQRDMAVLKRCAARVDPEVRKYLQDDEAIADLENDIDEATGLKRLWYKVIGKL | soluble
6 | MGDLIAITYHSNALQSERQMYVWTPPGYTGMGEPLPVLYFYHGFGDTGRSAIDQGRIPQIMDNLLAEGKIKPMLVVIPDTETDAKGIIPEDFVPQERRKVFYPLNAKAADRELMNDIIPLISKRFSVRKDADGRALAGLSQGGYQALVSGMNHLESFGWLATFSGVTTTTVPDEGVAARLNDPAAINQQLRNFTVVVGDKDVVTGKDIAGLKTELEQKKIKFDYQEYPGLNHEMDVWRPAYAAFVQKFKIRHLEHHHHHH | not soluble
7 | MMKKDYRTQVIEDLKKQDKAKKVLRDEQLLEELIQLEAYQKAHVIATYLAFPFEFDTSLLIEQAQRDNKSIVVPKTYPQGKMIFVVYDEADLQITKFGLKEPRSEEALEKSAIDLIHVPGLAFNNEGYRIGFGAGYYDQYLADFQGDTVSTIYSFQKFTFEPSFFDIPVKEVLVSGDLLEHHHHHH | soluble
8 | SLGRTRRKNKPITIKSYVVSSDTWQLGCIEYGSHSMSGQRAYNEDRVCVVPSVDVCTREGCCKAHTKAMFYAVYDGHNGEEAVNYVQEHLHKNIFRSRSFHGDVSKAIRAGFIATDNALRSMVMEKIRGEGFEDQDISPFSSGTTACTAVVRDMQLYIGNLGDSRCVLSRAGRSHLITVDHSCRTNADEQQRVREDGGHYDTDGYLNGAIGVSRAFGAFDKNCGQKLSGLTCEPQIHKETLRREDEFMIIACDGVFDVISCQEAVNCPPERLQHKDKRPADWTPTTPGLGEEKAATAEARPSSSSRSPLAATQSGASAGDRTGVSG | not soluble
9 | AGSMEDIPVEEAVLTGVATDNSEAKITVLGIPDSPGSASAVFRALADAEINIDTVLQNISSLEDNRTDITFTCPRADGPHAMELLRNLQAKNDWQNVLYDDQIGKVSLVGAGMKSHPGVTAEFCEALRDAGVNIELISTSEIRISVLIRESDVDVAARAIHEKFELGGETEAIVYAGTGR | not soluble
10 | SNAMQIVKKEKFILKEYTFENGRTIPVQMGYETYGTLNRERSNVILICHYFSATSHAAGKYTAHDEESGWWDGLIGPGKAIDTNQYFVICTDNLCNVQVKNPHVITTGPKSINPKTGDEYAMDFPVFTFLDVARMQCELIKDMGIARLHAVMGPSAGGMIAQQWAVHYPHMVERMIGVITNPQNPIITSVNVAQNAIEAIRLDPSWKGGKYGEEQPMKGLQLANRMMFMNAFDEHFYETTYPRNSIEVEPYEKVSSLTSFEKEINKLTYRSIELVDANSWMYTAKAVLLHDIAHGFSSLEEALSNVEANVLMIPCKQDLLQPSRYNYKMVDLLQKQGKYAEVYEIESINGHMAGVFDIHLFEKKVYEFLNRKVSSFV | soluble
11 | MAHHHHHHMPLKFAPKALNPEDSMRLAVVHMLRHDNAVILQTFTGNRGSSATRHGRLLRFMPHFPFCPTEKTGETAEEAPHLVEIAPLQLPYWARGSSRETMWPAARTPEAVHPSPPHFPHFLAERSSSLFVSISLPHFDLPLVFASPRREQRCSRDCRAEWLPRAVMDRDVAATWDEMLSAFCAAWSAAVRIEKTPFALLPPSLSHPLLAEQPLGEGRVPLQDEPAASFRLDPIVVPRRKLDRQRSERMLPPILAVDVAGKWNDTPSVFKSQEAALQRRFLAVARTLERTTAAPSRPLIVASVETPLTSDAAGECERLELASVVVPPFMCTQRMKAGRPWREGGHAGGRDTLVQEHSESLFSRMPPCMTRATELRFPDGKHMRQTLTLRNTAKERLEKLCGLRPPRRHRQKMAECFSTSKFSIARSRELAAAALLPSTVLSAASRVKPPHCSERKRRRGDVPPPPPPLQLLPHVRATAVFAFSSWQPLTLEEEEEENNDTCCEEELKIAPWRVFPREVELQSFQQLLERRIERNGKAMRVGNDDEEEKWYHAAFVHDVNTMPLPYREVSDLVEDARLHYCYRLALHREKRRLGL | not soluble
12 | MTKYRLSEEPRAFTYQVDGEKKSVLLRQVIAVTDFNDVKAGTSGGWVDAGNVLSQQGDCWIYDENAMAFAGTEITGNARITQPCSLYNNVRIGDNVWIDRSDISDGARISDNVTIQSSSVRGECAIYGDARVLNQSEILAVQGLTHEHAQILQIYDRATVNHSRIVHQVQLYGDATITLAFIEHRAEVFDFALIEGNKDNNVWICDCAKVYGHARVIAGTEEDAIPTLRYSSQVAEHALIEGNCVLKHHVLVGGHAEIRGGPILLDDRVLIEGQACIQGEILIEHQVEISGRATVIAFDGNTIHLRGPKVINGEDRITRTPLVGSLLEHHHHHH | soluble
13 | MGSDKIHHHHHHMNIDAHNLNDLMYFSQVVEHGGFSAAERVLGISKSRLSRRLTELEAALGVRLLQRSTRKLALTEAGELFYQHCQAMLAEAQAAMNAVQQLRSSPRGSVRVSVPVTLSQTMLSRILPEFLHRYPEVKVHIRVTNRVIDLFEDSVDVALRVRSEPPQNANIVVRPLWRTEQMLVGAPSLLSQNAPPLVPDDLARFETLDTPSVDGRHVFNLIAPDGTRHLHEHDPRLVTADLMTIREAVLDGLGIAALPEMMYGNALRAGQLSPVMPGWTLPVPQLYAAFVSRQGMPPAVRAFVDYLVEKLDHGDYKQPSCPERDKKEAAAADVSST | not soluble
14 | MTQQEYQNRRQALLAKMAPGSAAIIFAAPEATRSADSEYPYRQNSDFSYLTGFNEPEAVLILVKSDETHNHSVLFNRIRDLTAEIWFGRRLGQEAAPTKLAVDRALPFDEINEQLYLLLNRLDVIYHAQGQYAYADNIVFAALEKLRHGFRKNLRAPATLTDWRPWLHEMRLFKSAEEIAVLRRAGEISALAHTRAMEKCRPGMFEYQLEGEILHEFTRHGARYPAYNTIVGGGENGCILHYTENECELRDGDLVLIDAGCEYRGYAGDITRTFPVNGKFTPAQRAVYDIVLAAINKSLTLFRPGTSIREVTEEVVRIMVVGLVELGILKGDIEQLIAEQAHRPFFMHGLSHWLGMDVHDVGDYGSSDRGRILEPGMVLTVEPGLYIAPDADVPPQYRGIGIRIEDDIVITATGNENLTASVVKDPDDIEALMALNH | not soluble
15 | AHHHHHHGSAVRLKTPLTWEDIRDLEIGDRVLLSGIVYTARDLAHRRFLEEGFPFNPEGAVIYHCGPLIKNGIVVSAGPTTSARMEKYLDFLFNRGVRGVIGKGGMNHEKFKGRAVYFSYPGGAGSLAREFIVKVRDVYWEDLGMTDAVWELEVRDMPLLVSIDSKGRSLYRKN | soluble
16 | MSLLIVQKYGGTSMGSIERIHNVAQRVLESVTLGHQVVVVVSAMSGETDRLLEFGKNFSHNPNKREMDRIVSVGELVSSAALSMALERYGHRAISLSGKEAGILTSSHFQNAVIQSIDTKRITELLEKNYIVVIAGFQGADIQGETTTLGRGGSDLSAVALAGALKAHLCEIYTDVDGVYTTDPRIEEKAQKIAQISYDEMLELASMGAKVLLNRSVELAKKLSVKLVTRNSFNHSEGTLIVAEKDFKGERMETPIVSGIALDKNQARVSMEGVEDRPGIAAEIFGALAEYRINVDMIVQTIGRDGKTDLDFTIVKTQIEETKQALKPFLAQMDSIDYDENIAKVSIVGVGMKSHSGVASIAFKALAKDNINIMMISTSEIKISVLIDIKYAELAVRTLHAVYQLDQEGHHHHHH | not soluble
17 | MMMFLPPEVVREIHEERVKKALENLKAIELEKELLEKVVKEEKKVSSRRRRREKETVEV | not soluble
18 | MWDQHMHCMFSGDSDADPVLMINSAINKGLDGICFTDHLDYDYKEEPGLFDLDIAAYEKRIKRLAIVLKEKGCPINIHWGIEIGLQPHITDKNNEVAKKYPFDLVIGSSHVVNGIDPYYPAFYKGKTEHEAYTEYFESILDNLHSGADFDVYGHIDYVVRYGPDKNKYYSYERYADIIDAILKEIISQGKGIELNTAGFKYGLGHSNPTEDVLKRYHELGGEIITVGADAHKPEHVAYDFDKVSNILKDAGFMYYTVFENRVPAFIKL | not soluble
19 | MSYLAKFTSPNQMKKLIKTVVADLLGSDEDLKTSSCHVISNLAANSQEMLKGYTSQIVPYVLLEKCREVPKEDEIAREKQEKWNDVWAELVPTTSSAVRLYKEEILNLAIDLVTNNEVWAVRKQAAVMIRVTFENLKKDAGIDVAKKSALSLRDTLNGRIWDGKIEILRALTSAFEAGGADFKRNMSATEIEDMETVLRREASKKNMEYAGAGLATIATWAVISESVESATWLAKKIDENVTKLIGARNDADSDDNMDGLSNLEKEIRASKLVTLNLTALAISLPAFNNAEEAESTLSQIAGYVKSTVIAWKSKQFFFNELAKSLEKWTPREPVAAGKLIDNILEQADELCAQQKKTVATDALQVVLRIQERSDRFGVDRNSVLDSVNRGVAGSETGLGSRFEAKMDTD | not soluble
